Data published in patent publication US11319374B2, “Inhibitors of prototypic galectin dimerization and uses thereof” (INSTITUT NATIONAL DE LA RECHERCHE SCIENTIFIQUE, priority 2015, dated 2022).

Columns and labels:
hGal-7 homodimer = biological target: T1, hGal-7 homodimer (Homo sapiens, UniProt P47929); test: hGal-7 homodimer disruption, low-SDS native gel electrophoresis / Western blotting; assay type: biochemical; conditions: recombinant hGal-7 0.5 μM
T1 construct: made in house; host or cells: E. coli BL21 (DE3)
T1 sequence (P47929 2-136 limits assumed): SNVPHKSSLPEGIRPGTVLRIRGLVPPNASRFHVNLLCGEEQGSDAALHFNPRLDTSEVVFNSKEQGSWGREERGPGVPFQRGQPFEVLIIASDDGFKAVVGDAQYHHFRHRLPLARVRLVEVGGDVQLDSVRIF
Protocol: Production of recombinant hGal-7 and hGal-1. Human Gal-7 cDNA was cloned into pET-22b(+) using Ndel and HindIII restriction enzymes. Human pET-Gal-1 vector was generously donated by Dr. S. Sato (McGill University, QC, Canada). The proteins were produced in E. coli BL21 (DE3) cells at 37° C. Isopropyl p-D-1-thiogalactopyranoside (IPTG) (1 mM) was added to the bacterial culture at OD600nm=0.6-0.7 and then incubated for 4 h at 37° C. to allow protein production. Bacterial pellets were resuspended in lysis buffer (0.7 mg/mL lysozyme, 10 mM Tris pH 8, 100 mM NaCl, 1 mM EDTA, 1 mM DTT and a protease inhibitor cocktail) and then incubated for 1 h at 37° C. prior to centrifugation for 30 min at 15,000×g (4° C.). The supernatant was then filtered with 500 mL bottle top filter ([…]) (Corning®, New York, N.Y., USA) and then ran through a lactose-agarose column (Sigma®, St. Louis, Mo., USA). The protein was eluted in 1 mL fractions with 150 mM lactose solution. Purified fractions were analyzed by SDS-PAGE. The hGal-7 was then concentrated and purified using Centrifugal filter units (Amicon® Ultra-15, 10K) (EMD®, Etobicoke, ON) in 20 mM potassium phosphate at pH 7.1. All subsequent experiments with the recombinant proteins were performed in the same buffer solution unless mentioned otherwise. Brilliant Coomassie blue was purchased from BioRad® (Bio-Rad Laboratories®, Mississauga, ON, Canada). The recombinant human Bcl-2 protein fragment was purchased from Abcam® (Abcam®, Cambridge, UK, Cat #ab73696).
Western blotting. For the apoptosis tests, whole-cell extracts were homogenized and resuspended in RIPA buffer (Thermo Fisher Scientific®, Rockford, Ill., USA) containing protease inhibitors (Roche®, Laval, QC, Canada). Equal amounts of whole-cell extracts (25 μg) were separated on SDS-PAGE and transferred onto nitrocellulose membranes (Bio-Rad Laboratories®). The membranes were first blocked with 5% milk [w/v] in TBS/0.5% Tween® 20 [v/v] for 1 h at room temperature and subsequently blotted overnight in a solution of TBS containing 3% BSA [w/v] and 0.5% Tween 20 [v/v]. The following antibodies were used: a rabbit anti-Poly-(ADP-ribose) polymerase (PARP)-1 (p25) polyclonal antibody (1:5000; Epitomics®, Burlingame, Calif., USA) and a mouse anti-β-actin (1:10000; Sigma-Aldrich®, St-Louis, Mo., USA). Secondary antibodies consisted of horseradish peroxidase-conjugated donkey anti-rabbit (GE Healthcare®, Buckinghamshire, England) and sheep anti-mouse (GE Healthcare®) IgG. Detection was performed using the enhanced chemiluminescence method (GE Healthcare®). For the recombinant protein tests, each peptide was dissolved and maintained in 20 mM potassium phosphate at pH 7.1. The recombinant proteins and peptide dilutions were pre-incubated for 1 h at 4° C. prior to gel migration. The native polyacrylamide gel was made without SDS to allow molecular weight differentiation between the dimer and monomer. The following antibodies were used: a goat anti-Gal-7 antibody (1:10000; R&D Systems®, Minneapolis, Minn., USA), a mouse anti-Gal-1 antibody (1:10000; Proteintech®, Chicago, Ill., USA) and a rabbit anti-Bcl-2 antibody (1:1000; Abeam®, Cambridge, UK). Secondary antibodies consisted of donkey anti-goat (R&D Systems®) or sheep anti-mouse and sheep anti-rabbit (GE Healthcare®) IgG. Detection was performed as described above.
To determine whether these peptides could inhibit the formation of the hGal-7 homodimer, recombinant hGal-7 (0.5 μM) was incubated with increasing concentrations of hGal-7(13-25), hGal-7(85-102), hGal-7(95-108) or hGal 7(129-135) and the formation of homodimers was measured. To measure the ability of the peptides to disrupt the formation of hGal-7 dimers, a mild denaturing (low SDS) native gel electrophoresis, a commonly used approach to visualize monomer-dimer equilibrium, was used (FIG. 1A and FIG. 6).

Jurkat T cells [1] = test: hGal-7-induced apoptosis of Jurkat T cells, PARP-1 cleavage by Western blotting; assay type: cell-based; conditions: 4 h at 37° C., serum-free RPMI, FIG. 5A
Protocol: Western blotting. For the apoptosis tests, whole-cell extracts were homogenized and resuspended in RIPA buffer (Thermo Fisher Scientific®, Rockford, Ill., USA) containing protease inhibitors (Roche®, Laval, QC, Canada). Equal amounts of whole-cell extracts (25 μg) were separated on SDS-PAGE and transferred onto nitrocellulose membranes (Bio-Rad Laboratories®). The membranes were first blocked with 5% milk [w/v] in TBS/0.5% Tween® 20 [v/v] for 1 h at room temperature and subsequently blotted overnight in a solution of TBS containing 3% BSA [w/v] and 0.5% Tween 20 [v/v]. The following antibodies were used: a rabbit anti-Poly-(ADP-ribose) polymerase (PARP)-1 (p25) polyclonal antibody (1:5000; Epitomics®, Burlingame, Calif., USA) and a mouse anti-β-actin (1:10000; Sigma-Aldrich®, St-Louis, Mo., USA). Secondary antibodies consisted of horseradish peroxidase-conjugated donkey anti-rabbit (GE Healthcare®, Buckinghamshire, England) and sheep anti-mouse (GE Healthcare®) IgG. […]
(§1) It was thus tested whether hGal-7(129-135) could modulate the binding of hGal-7 on Jurkat T cells, a cell model that is commonly used to test the pro-apoptotic activity of galectins. For this purpose, recombinant hGal-7 was labeled with fluorescein isothiocyante (FITC) and its binding on the surface of Jurkat T cells was measured by flow cytometry in absence or presence of increasing concentrations of hGal-7(129-135). […]

Jurkat T cells [2] = test: FITC-labeled hGal-7 binding on Jurkat T cells, flow cytometry; assay type: cell-based; conditions: FITC-labeled hGal-7 0.1 μM pre-incubated with peptide, FIG. 4
Protocol: FITC conjugation and hGal-7 binding assay. To assess hGal-7 binding onto Jurkat T cells, 5 μL of a 1.25 mg/mL fluorescein isothiocyanate (FITC)/DMSO solution was added to 300 μL of 1.7 μg/μL recombinant hGal-7 in a 0.1 M NaHCO3 pH 9.2 solution and incubated for 1 h at room temperature on a roller. FITC-labeled hGal-7 was then purified using a PD-10 Sepharose® column (GE healthcare) and eluted with PBS containing 0.01% [v/v] sodium azide. FITC-labeled hGal-7 (0.1 μM) was then pre-incubated with hGal-7(129-135) (or related peptides) in 20 mM potassium phosphate buffer pH 7.1 for 1 h at 4° C. Jurkat cells (5×10^5 cells per sample) were harvested in PBS-0.01% [v/v] sodium azide and incubated for 30 min on ice with the FITC-labeled hGal-7 with and without peptides. Cells were then washed with PBS-0.01% [v/v] sodium azide and resuspended in 400 μL of the same buffer and analyzed on a FACSCalibur® (BD Biosciences®).
as §1

[3] = 20 mM potassium phosphate pH 7.1, FIG. 2A

Substance: H-Leu-Asp-Ser-Val-Arg-Ile-Phe-NH2 (H-LDSVRIF-NH2; listed as Homo sapiens) [hGal-7(129-135), peptide corresponding to residues 129-135 of hGal-7]
- disruption of hGal-7 homodimers in the presence of lactose (hGal-7 homodimer; 0.1 mM lactose solution, FIG. 2D): not inhibited by the presence of lactose
- concentration at which consistent decrease of hGal-7 homodimers starts (hGal-7 homodimer; [3]): 10 µM
- saturation dose for decrease of hGal-7 homodimers (hGal-7 homodimer; [3]): 100 µM
- inhibition of hGal-7-induced apoptosis, PARP-1 cleavage (Jurkat T cells [1]): inhibited the ability of hGal-7 to induce apoptosis in Jurkat T cells
- fluorescent intensity of Jurkat T cells due to FITC-labeled hGal-7 binding (Jurkat T cells [2]): increased the fluorescent intensity of Jurkat T cells in a concentration-dependent manner
